Test results reported in patent US20060058189A1.

Target: PpFtsZ2-1-CFP fusion protein (Physcomitrella patens)
Assay: FRET by acceptor photobleaching, confocal microscopy, cotransfected Physcomitrella protoplasts (FtsZ2-1-CFP donor, FtsZ1-1-YFP acceptor)

FRET efficiency: 36.5%
Substance: PpFtsZ1-1-YFP fusion protein
